IntAct's records for PubMed 29051512

B1: CMRF35-like molecule 7 (Homo sapiens), A8K4G0 (parent)
chain: MWLPPALLLLSLSGCFSIQGPESVRAPEQGSLTVQCHYKQGWETYIKWWCRGVRWDTCKILIETRGSEQGEKSDRVSIKDNQKDRTFTVTMEGLRRDDADVYWCGIERRGPDLGTQVKVIVDPEGAASTTASSPTNSNMAVFIGSHKRNHYMLLVFVKVPILLILVTAILWLKGSQRVPEEPGEQPIYMNFSEPLTKDMAT
partner: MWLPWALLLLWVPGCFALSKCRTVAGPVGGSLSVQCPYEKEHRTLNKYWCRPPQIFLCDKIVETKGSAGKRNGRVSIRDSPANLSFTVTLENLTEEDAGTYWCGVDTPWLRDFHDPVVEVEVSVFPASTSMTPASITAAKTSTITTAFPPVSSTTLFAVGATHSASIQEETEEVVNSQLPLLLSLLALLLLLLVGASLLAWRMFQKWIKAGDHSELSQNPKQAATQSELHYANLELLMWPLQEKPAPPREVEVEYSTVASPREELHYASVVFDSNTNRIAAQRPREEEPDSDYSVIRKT
B2: CMRF35-like molecule 7 (Homo sapiens), A8K4G0 (parent)
chain: B1 chain
partner: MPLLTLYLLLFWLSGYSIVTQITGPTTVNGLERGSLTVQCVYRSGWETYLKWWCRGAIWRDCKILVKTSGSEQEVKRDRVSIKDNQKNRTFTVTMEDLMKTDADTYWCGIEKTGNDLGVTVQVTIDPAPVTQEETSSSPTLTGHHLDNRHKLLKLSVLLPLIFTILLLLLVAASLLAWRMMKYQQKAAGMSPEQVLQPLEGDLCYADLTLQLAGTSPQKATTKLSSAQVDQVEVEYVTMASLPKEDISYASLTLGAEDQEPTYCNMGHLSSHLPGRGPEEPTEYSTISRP
B3: CMRF35-like molecule 7 (Homo sapiens), A8K4G0 (parent)
chain: B1 chain
partner: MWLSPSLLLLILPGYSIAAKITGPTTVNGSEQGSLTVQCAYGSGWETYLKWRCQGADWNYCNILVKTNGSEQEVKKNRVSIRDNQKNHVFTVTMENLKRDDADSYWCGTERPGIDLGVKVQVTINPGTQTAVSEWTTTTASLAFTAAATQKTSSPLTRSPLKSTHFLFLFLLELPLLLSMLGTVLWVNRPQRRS
B4: CMRF35-like molecule 7 (Homo sapiens), A8K4G0 (parent)
chain: B1 chain
partner: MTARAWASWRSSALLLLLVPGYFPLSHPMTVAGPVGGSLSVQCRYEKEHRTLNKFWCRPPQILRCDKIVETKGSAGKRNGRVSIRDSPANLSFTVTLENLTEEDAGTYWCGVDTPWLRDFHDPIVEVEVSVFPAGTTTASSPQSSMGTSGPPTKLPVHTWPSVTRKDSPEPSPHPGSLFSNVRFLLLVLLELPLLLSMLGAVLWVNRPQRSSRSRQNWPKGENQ
B5: CMRF35-like molecule 7 (Homo sapiens), A8K4G0 (parent)
chain: B1 chain
partner: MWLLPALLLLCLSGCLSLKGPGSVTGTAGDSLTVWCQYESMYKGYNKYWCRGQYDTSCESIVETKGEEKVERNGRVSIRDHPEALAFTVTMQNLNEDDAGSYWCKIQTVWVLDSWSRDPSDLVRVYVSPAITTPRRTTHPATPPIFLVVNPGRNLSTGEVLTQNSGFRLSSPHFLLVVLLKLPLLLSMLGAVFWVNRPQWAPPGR

Variants of: B1
Conditions: with clm8_human CD300A

| Variant | effect of a mutation on the interaction |
| --- | --- |
| E28A;Q29G | decreasing interaction strength |

Variants of: B2
Conditions: with clm1_human CD300LF

| Variant | effect of a mutation on the interaction |
| --- | --- |
| E28A;Q29G | decreasing interaction strength |

Variants of: B3
Conditions: with clm5_human CD300LD

| Variant | effect of a mutation on the interaction |
| --- | --- |
| E28A;Q29G | decreasing interaction strength |

Variants of: B4
Conditions: with clm6_human CD300C

| Variant | effect of a mutation on the interaction |
| --- | --- |
| E28A;Q29G | decreasing interaction strength |
| R95G;D97G | with no effect |

Variants of: B5
Conditions: with clm2_human CD300E

| Variant | effect of a mutation on the interaction |
| --- | --- |
| E28A;Q29G | decreasing interaction strength |
